Kd data for three molecules are collected here from paper PMC4301919, “Helical Defects in MicroRNA Influence Protein Binding by TAR RNA Binding Protein”.

Data set [1] concerns the target T1, TRBP-ΔC-RBD2-Null (UniProt Q15633-2 9-215, K150A;K189A;K190A).
T1 sequence: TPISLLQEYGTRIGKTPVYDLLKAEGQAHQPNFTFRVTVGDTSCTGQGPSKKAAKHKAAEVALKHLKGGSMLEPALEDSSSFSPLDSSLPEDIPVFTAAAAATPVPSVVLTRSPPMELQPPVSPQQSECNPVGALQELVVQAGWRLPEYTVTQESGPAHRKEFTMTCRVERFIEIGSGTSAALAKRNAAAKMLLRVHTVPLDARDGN
The data set can be described thus: EMSA; apparent Kd; nH 2.0; 50 mM sodium cacodylate pH 7.0, 50 mM potassium glutamate, 5% glycerol; EMSA 0.5 pM RNA, 30 min at room temperature, gel 0.25X TBE at 10 C; CD at 10 C with 5-15 uM RNA. To be noted: protein: recombinant; label: 5'-32P top strand; imperfect duplex with U-bulge and A-A mismatch. Background: A gel shift assay detects complexes by their altered migration in electrophoresis.

Data set [2] deals with T2, TRBP-ΔC-RBD1-Null (UniProt Q15633-2 9-215, K23A;K59A;K60A).
T2 sequence: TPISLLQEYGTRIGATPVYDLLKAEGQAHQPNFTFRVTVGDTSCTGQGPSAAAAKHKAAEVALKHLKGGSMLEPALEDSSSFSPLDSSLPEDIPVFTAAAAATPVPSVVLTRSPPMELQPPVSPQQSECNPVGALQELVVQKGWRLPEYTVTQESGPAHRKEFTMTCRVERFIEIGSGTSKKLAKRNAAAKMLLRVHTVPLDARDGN
The data set can be described thus: EMSA; apparent Kd; nH 3.1; 50 mM sodium cacodylate pH 7.0, 50 mM potassium glutamate, 5% glycerol; EMSA 0.5 pM RNA, 30 min at room temperature, gel 0.25X TBE at 10 C; CD at 10 C with 5-15 uM RNA. To be noted: protein: recombinant; label: 5'-32P top strand (EMSA); blunt.

Data set [3] addresses T1, TRBP-ΔC-RBD2-Null. The data set can be described thus: EMSA; apparent Kd; nH 3.2; 50 mM sodium cacodylate pH 7.0, 50 mM potassium glutamate, 5% glycerol; EMSA 0.5 pM RNA, 30 min at room temperature, gel 0.25X TBE at 10 C; CD at 10 C with 5-15 uM RNA. To be noted: protein: recombinant; label: 5'-32P top strand (EMSA); blunt.
Data set [4] deals with T2, TRBP-ΔC-RBD1-Null. The data set can be described thus: EMSA; apparent Kd; nH 3.0; 50 mM sodium cacodylate pH 7.0, 50 mM potassium glutamate, 5% glycerol; EMSA 0.5 pM RNA, 30 min at room temperature, gel 0.25X TBE at 10 C; CD at 10 C with 5-15 uM RNA. Particulars: protein: recombinant; label: 5'-32P top strand (EMSA); blunt.
The target in data set [5] is T1, TRBP-ΔC-RBD2-Null. Briefly: EMSA; apparent Kd; nH 3.4; 50 mM sodium cacodylate pH 7.0, 50 mM potassium glutamate, 5% glycerol; EMSA 0.5 pM RNA, 30 min at room temperature, gel 0.25X TBE at 10 C; CD at 10 C with 5-15 uM RNA. To be noted: protein: recombinant; label: 5'-32P top strand (EMSA); blunt.

B1: miR-16-1/miR-16-1* (dsRNA)
RNA 1: UAGCAGCACGUAAAUAUUGGCG
RNA 2: CCAGUAUUAACUGUGCUGCUGAA
As for B1, the Kd with TRBP-ΔC-RBD2-Null [1] stood at 900 ± 100 nM.

B2: ds22 (dsRNA)
RNA 1: GUCAGCAGUGCCUUAGCAGCAC
RNA 2: GUGCUGCUAAGGCACUGCUGAC
For the molecule B2, the figures for the Kd with TRBP-ΔC-RBD1-Null [2] and in the data set with TRBP-ΔC-RBD2-Null [3] were 2290 ± 80 nM and 340 ± 10 nM, respectively.

B3: ds33 (dsRNA)
RNA 1: GGUCAGCAGUGCCUUAGCAGCACGUAAAUAUGG
RNA 2: CCAUAUUUACGUGCUGCUAAGGCACUGCUGACC
B3: the Kd was 1220 ± 70 nM with TRBP-ΔC-RBD1-Null [4] and 440 ± 50 nM with TRBP-ΔC-RBD2-Null [5].
